The nanobody polyreactivity screen of Harvey et al. (2022)

Experiment: yeast display, Sf9 membrane polyspecificity reagent, FACS + sequencing; frameworks hold sequencing errors
In short: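 Nanobodies came from a synthetic yeast display library in Saccharomyces cerevisiae BJ5465, induced with galactose for 36–48 hours and stained for 1 hour at 4 °C with 10% biotinylated, detergent-solubilized Sf9 membrane reagent. Cells were enriched on streptavidin microbeads and then FACS-sorted, with low and high (top ~1%) gates set on anti-HA fluorescence for expression and streptavidin fluorescence for reagent binding. Each polyreactivity label reflects the gate a clone came from. Genes were amplified by colony PCR, sequenced by MiSeq 2 × 250 and filtered by CDR length.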

Sequence	polyreactivity (PSR sort gate)
QVQLVESGGGLVQAGGSLRLSCAASGRIFTYNAMGWYRQAPGKEWELVAVISRRGGSTYYADSVKGRFTISRDNAKNSVYLQMNSLKPEDTAVYYCAADLPSYAYEFWGQGTQVTVSS	low polyreactivity
QVQLVESGGGLVQAGGSLRLSCAASGRIFTYYAKGWYRQAPGKERELVAAISWSGGSTYYADSVKARITISRDNAKKTVYLVMNSLNPEDTAVYYCNAVYPSVYPVSTRYYWGQGTQVTVSS	high polyreactivity
QVQLVESGGGLVQAGGSLRLSCAASGRIFTYYAMGWYRQAPGKERELVAAISYSGSSTYYADSVKGRFTISRDNAKNTVYLQMNSLKPEDTAVYYCAAAPSGHYLAYGYWGQGTQVTVSS	high polyreactivity
QVQLVESGGGLVQAGGSLRLSCAASGRIFTYYAMGWYRQAPGKERELVAAITGSGTSTYYADSVKGRFTISRDNAKNTVYLQMNSLKPEDTAVYYCAARNSYSRYYYWGQGTQVTVSS	high polyreactivity
QVQLVESGGGLVQAGGSLRLSCAASGRIFTYYAMGWYRQAPGKERELVASISKSSGSTYYADSVKGRFTISRDNAKNTVYLQMNSLKPEDTAVYYCATDPYVRRSPSWYDYWGQGTQVTVSS	low polyreactivity
QVQLVESGGGLVQAGGSLRLSCAASGRIFVDNAMGWYRQAPGKERELVAAITGGGSTYADSVKGRFTISRDNAKNTVYLQMNSLKPEDTAVYYCAADLWSVPFTVYTFGIFYYWGQGTQVTVSS	low polyreactivity
QVQLVESGGGLVQAGGSLRLSCAASGRIFVDNAMGWYRQAPGKESELVADITSGGSTYYADSVKGRFTISRDNAKNTVYLQMNSLKPEDTAVYYCAADYRVSSDYRYDYWGQGTQVTVSS	low polyreactivity
QVQLVESGGGLVQAGGSLRLSCAASGRIFVDNTMGWYRQAPGKERELVAAISRRGTSTYYADSVKGRFTISRDTAKNTVFLQMNSLNPEDTAVYYCAADYYYYDSQQGMDYWGQGTQVTVSS	high polyreactivity
QVQLVESGGGLVQAGGSLRLSCAASGRIFVDYDMGWYRPAPGKERELVATISSGGSTNYADSVKGRFTISRDNAKNTVYLQMNSLKPEDTAVYYCAASSYSTSYIRGDYWGQGTQVTVSS	low polyreactivity
QVQLVESGGGLVQAGGSLRLSCAASGRIFVFNAMGWYRQAPGKERELVASISSSGGSTYYADSVKGRFTISRDNAKNTVYLQINSLKPEDTAVYYCARRSYHSRYNYWGQGTQVTVSS	high polyreactivity
QVQLVESGGGLVQAGGSLRLSCAASGRIFVFYAMGWYRQAPGKERELVAAITASSTRTYYADSVKGRFTISRDHAKNTVYLQLNSLKPEDTAVYYCARDIRQYILYGRGDYWGQGTQVTVSS	low polyreactivity
QVQLVESGGGLVQAGGSLRLSCAASGRIFVFYAMGWYRQAPGKERELVASITLTDGSTYYADSEKGRFTISRDNAKNTVYLQMNSLKPEDTAVYYCAARISGGSTFRYQRMYYWGQGTQVTVSS	low polyreactivity
QVQLVESGGGLVQAGGSLRLSCAASGRIFVGNAMGRYRQAPGKERELVAAISRSGGRTYYADSVKGRFTISRDNAKNTVYLQMNSLKPEDTAVYYCNTRVYAGKYDYWGQGTQVTVSS	high polyreactivity
QVQLVESGGGLVQAGGSLRLSCAASGRIFVGNTMGWYRQAPGKERELVAAISWRGRTSYADSVKGRFTISRDNAKNTVYLQMNSLKPEDTAVYYCNAEHAGATRYYYIANWMDYWGQGTQVTVSS	low polyreactivity
QVQLVESGGGLVQAGGSLRLSCAASGRIFVGYAMGWYRQAPGKEREFVAAITIGGTDTYYADSVKGRFTISRDNAKNTVYLQMNSLKPEDTAVYYCNADLLYPYDFDYWGQGTQVTVSS	low polyreactivity
QVQLVESGGGLVQAGGSLRLSCAASGRIFVGYAMGWYRQAPGKERELVAAINRSGSSTYYADSVKGRFTISRDNAKNTVYLQMNSLKPEDTAVYYCNARSGNRYGPRYDYWGQGTQVTVSS	high polyreactivity
QVQLVESGGGLVQAGGSLRLSCAASGRIFVGYAMGWYRQAPGKERELVAAISSDGGSTYYADSVKGRFTISRDNAKNTVYLQMNSLKPEDSAVYYCNAYYGRFPYYADDYWGQGTQVTVSS	low polyreactivity
QVQLVESGGGLVQAGGSLRLSCAASGRIFVGYAMGWYRQAPGKERELVAAITGSGGGTYYADSVKGRFTISRDNAKNTVYLQMNSLKPEDTAVYYCAATGYLKVRGYYAWHFYYWGQGTQVTVSS	high polyreactivity
QVQLVESGGGLVQAGGSLRLSCAASGRIFVGYAMGWYRQAPGKERELVAAITKSGGRTYYADSVKGRFTISRDNAKNTVYLQMNSLKPEDTAVYFCAKYLGRQHEKDLGGMNYWGQGTQLTVSS	high polyreactivity
QVQLVESGGGLVQAGGSLRLSCAASGRIFVGYAMGWYRQAPGKERELVAAITKSGGRTYYADSVKGRFTISRDNAKNTVYLQMNSLKPEDTAVYYCAVLNSKWNEYDYWGQGNQVTVSS	high polyreactivity
QVQLVESGGGLVQAGGSLRLSCAASGRIFVGYGMGWYRQAPGKERELVASIDTGGSTYYADSVKGRFTISRDNAKNTVYLQMNSLKPDDTAVYYCAADYQSYTSLTGYHNSEGDPWGQGTQVTVSS	low polyreactivity
QVQLVESGGGLVQAGGSLRLSCAASGRIFVHNAMGWSRQAPGKERELVAAISSGGSTYYADSVKGRFTISRDNAKNTVYLQMNSLKPEDTAVYYCAIYAYYNKYDYWGQGTQVTVSS	high polyreactivity

Sequence	polyreactivity (PSR sort gate)
QVQLVESGGGLVQAGGSLRLSCAASGRIFVHYAMGWYRQAPGKERELVAAITSGSSTNYADSVKGRFTISRDNAKNTVYLQMNSLKPEDTAVYYCAADYSVHMVRDRWFDYWGQGTQVTVSS	low polyreactivity
QVQLVESGGGLVQAGGSLRLSCAASGRIFVIYAMGWNRQAPGKERELVASITDGTITNYADSVKGRFTISRDNAKNTVYLQMNSLKPEDTAVYYCAAGTQAHAYVVRPIEMDYWGQGTQVTVSS	low polyreactivity
QVQLVESGGGLVQAGGSLRLSCAASGRIFVIYGMGWYRQAPGKERELVAAIRWTGGSTYFADSVKGRFTISRDNAKNTVYLQMNSLKPEDTAVYYCNAGSDRAIWPTHDYWGQGTQVTVSS	low polyreactivity
QVQLVESGGGLVQAGGSLRLSCAASGRIFVIYGMGWYRQAPGKERELVATISWSGSSTSYADSVKGRFTISRDNAKNTVYLQMNSLKPEDTAVYYCAAYTWYSRHRMNYWGQGTQVTVSS	high polyreactivity
QVQLVESGGGLVQAGGSLRLSCAASGRIFVKNAMGWYRQAPGKERELVATISSGGNTNYADSVKGRFTISRDNAKNTVYLQMNSLKPEDTAVYYCAAVWDLGDYELPYDYWGQGTQVTVSS	low polyreactivity
QVQLVESGGGLVQAGGSLRLSCAASGRIFVKYAMGWYRQAPGKERELVAAITNSGGRTYYAASVKGRFTISRDNAKNTVYLQMNSLKPEDTAVYYCAALYHASTRQMDYWGQGTQVTVSS	high polyreactivity
QVQLVESGGGLVQAGGSLRLSCAASGRIFVKYAMGWYRQEPGKERELVAAIRWSVGSTYYADSVKGRFTISRDNAKNTVYLLMNSLKPEDTAVYYCAAQPVRKLYWGQGTQVTVSS	high polyreactivity
QVQLVESGGGLVQAGGSLRLSCAASGRIFVKYVMGWYRQAPGKERELVAAISSSGGRTYYADSVKGRFTISRDNAKNTVYLPMNSLKPEDTAVYYCNAVRRRSSLKLDSWGQGTQVTVSS	high polyreactivity
QVQLVESGGGLVQAGGSLRLSCAASGRIFVLYDMGWYRQAPGKERELVAGISGSGGRTYYADSVKGRFTISRDNAKNTVYLQMNSLKPEDTAVYYCNARGYYWYRPYVNSNGGYWGQGTQVTVSS	high polyreactivity
QVQLVESGGGLVQAGGSLRLSCAASGRIFVNNAMGWYRQAPGKERELVAAISKRGGSTYYADSVKGRFTISRDNAKNSVYLQMNSLKPEDTAVYYSAATPVYSGPYDYWGQGTQVTVSS	high polyreactivity
QVQLVESGGGLVQAGGSLRLSCAASGRIFVNYAMGWYRQAPVKERELVATITWSGGSTFYADSVKGRFTISRDNAKNTVYLQMNSLKPEDTAVYYCAQRGYVRSGLGRPYADDYWGQGTQLTVSS	low polyreactivity
QVQLVESGGGLVQAGGSLRLSCAASGRIFVPNAMGWYRQAPGKERELVAAITSSGSSTYYADSVKGRFTISRDNAKNTVYLQMNSLKPEDTAVYYCNTLWGGFSWFRVDSWGQGTQVTVSS	high polyreactivity
QVQLVESGGGLVQAGGSLRLSCAASGRIFVPYAMGWYRPAPGKERELVAAITWRGGRTYYADSVKGRFTISRDNAKNTVYLQMNSLKPEDTAVYYWAARGWTVTERYYWGQGTQVTVSS	high polyreactivity
QVQLVESGGGLVQAGGSLRLSCAASGRIFVPYAMGWYRQAPGKERELVAAISWRGGSTNYADSVKGRFTISRDNAKNTVYLQMNSLKPEDTAVYYCAAVPVRYRYSYGYYYWGQGTQVTVSS	high polyreactivity
QVQLVESGGGLVQAGGSLRLSCAASGRIFVPYVMGWYRQAPGKERELVASISDSDTSTYYADSVKGRFTISRDNAKNTVDLQMNSLKPEDTAVYYCNVDYWGQGTQVTVSS	low polyreactivity
QVQLVESGGGLVQAGGSLRLSCAASGRIFVPYVMGWYRQAPGKERELVASISDSDTSTYYADSVKGRFTISRDNAKNTVYIQMNSLKPEDSAVYYCNVDYWGQGTQVTVSS	low polyreactivity
QVQLVESGGGLVQAGGSLRLSCAASGRIFVQYAMGWYRQAPGKERELVAAISYSGGRTYYADSVKGRFTISRDNAKNTVYLQMNSLKPEDTAVYYCAAVRAGYYGYWGKGTQVTVSS	high polyreactivity
QVQLVESGGGLVQAGGSLRLSCAASGRIFVQYDMGWYRQAHGKERELVAAITGGGGSTYYADSVKGRFTISRDNAKNTVYLQMNSLKPEDTAVYYCAADQDVYDFTGYDYWGQGTQVTVSS	low polyreactivity
QVQLVESGGGLVQAGGSLRLSCAASGRIFVQYDMGWYRQAPGKERELVAAITGGGGSTYYADSVKGRFTISRDNAKNTVYLQMHSLKPEDTAVYYCAADQDVYDFTGYDYWGQGTQVTVSS	low polyreactivity
QVQLVESGGGLVQAGGSLRLSCAASGRIFVRNAMGWYRQAPGKEREFVAAISRSGGSTYYAYSVKGRFTISRDNAKNSVYLQMNSLKPEDTAVYYCAADYPKTYTSKFNYWGQGTQVTVSS	high polyreactivity
QVQLVESGGGLVQAGGSLRLSCAASGRIFVRNAMGWYRQAPGKERELVAAITRTGASTYYADSVKGRFTISRDNAKNTVYLQMNSLKPDDTAVYYCAAVWGWPYWVYRYDYWGQGTQVTVSS	high polyreactivity
